Assay results published in patent US20160208226A1, “Transaminase Biocatalysts” (COMMONWEALTH SCIENTIFIC AND INDUSTRIAL RESEARCH ORGANISATION, priority 2013, published 2016).

Legend:
Format in all cases: biochemical
[1] = Large-scale (200 mL) p6 reaction analysed by GC-MS; conditions: C11 amino acid substrate, after seven days, oil analysed by GC-MS
Method: To corroborate the findings of the UV assay, a large-scale (200 mL) p6 reaction was carried out using C11 amino acid substrate. After seven days, the mixed reaction was allowed to settle and yellow oil was observed on the surface of the reaction. This oil was concentrated in vacuo and analysed by GC-MS. […] The diacid is thought to be the oxidation product of the semialdehyde formed by the transaminase, further supporting the findings of the UV assay.

[2] = Coupled dehydrogenase assays for transaminase activity of the Pseudomonas sp. proteins and ancestral reconstructions
Method: Activity for each protein was assessed using coupled dehydrogenase assays as described previously. A typical assay comprised:
Substrate (6.25 mM final concentration in potassium phosphate buffer)
Co-substrate (pyruvate (0.5 mM final concentration) or α-KG (0.25 mM final concentration)
NAD (1.25 mM final concentration)
Dehydrogenase (1 μL from ADH-≧35 units/mL stock solution or GDH≧35 units/mg protein stock)
Transaminase (final concentration dependent)
Potassium phosphate buffer (100 mM)
UV absorbance at 340 nm was recorded at 28° C. over a pH range of 7.5-10 with a range of substrates.
Proteins encoded by p7N6, p7N15, p7N16, p7N17, p7N43 and p7N48 were expressed using an E. coli recombinant expression platform and subsequently purified.
Each of the proteins were assayed for substrate specificity. Substrates identified by assaying for each of the proteins are summarized below.

[3] = Coupled assay of GabT with glutamate dehydrogenase (NADH formation at 340 nm); conditions: coupled GDH assay, NADH detected at 340 nm
Source text: DNA encoding the GabT protein from E. coli strain BL21-DE3 was amplified from genomic DNA using specially designed primers. The PCR product was restricted using NdeI and BamHI restriction endonucleases (NEB) and ligated (T4 DNA ligase, NEB) into a modified pET expression vector that had also been restricted using the aforementioned enzymes, and contained ampicillin resistance for selectivity. The vector was transformed into electrocompetent E. coli strain BL21-DE3 and transformants plated onto LB agar plates containing ampicillin (100 μg/mL) for selectivity. Transformant DNA was isolated and sent for sequencing to confirm the identity of the vector construct. […] The protein was purified using a HiTrap Chelating HP 5 mL column (GE Healthcare) for nickel affinity chromatography on an FPLC (Fast Protein Liquid Chromatography. GE Healthcare), exploiting an N-terminal His6-tag on GabT. SDS-PAGE confirmed the protein size.
Protein activity was confirmed using a coupled assay that comprised GabT and a commercially available glutamate dehydrogenase (GDH; Sigma Aldrich). The assay works as illustrated below, with the dehydrogenase catalysing the oxidative deamination of glutamate—the co-product of the GabT transamination reaction.
Therefore, although a viable biocatalyst for these substrates had been identified, it could not produce the desired longer chain (>C9) products. […]

B1: p6: pyruvate: ω-amino acid transaminase from a newly isolated Pseudomonas sp., amino acid sequence SEQ ID NO:1 (protein, listed as Pseudomonas sp.)
chain: MGSSHHHHHHSSGLVPRGSHMNQQVNVAPSAAADLNLKAHWMPFSANRNFHKDPRIIVAAEGSWLVDDKGRRIYDSLSGLWTCGAGHSRKEIADAVAKQIGTLDYSPGFQYGHPLSFQLAEKIAQMTPGTLDHVFFTGSGSECADTSIKMARAYWRIKGQAQKTKLIGRARGYHGVNVAGTSLGGIGGNRKMFGPLMDVDHLPHTLQPGMAFTKGAAETGGVELANELLKLIELHDASNIAAVIVEPMSGSAGVIVPPKGYLQRLREICDANDILLIFDEVITAFGRMGKATGAEYFGVTPDIMNVAKQVTNGAVPMGAVIASSEIYDTFMNQNLPEYAVEFGHGYTYSAHPVACAAGIAALDLLQKENLIQQSAELAPHFEKALHGLKGTKNVIDIRNCGLAGAIQIAARDGDAIVRPFEASMKLWKEGFYVRFGGDTLQFGPTFNAKPEDLDRLFDAVGEALNGVA
In the case of B1, the “product detected by GC-MS in large-scale reaction” value [1] is reported as “a peak corresponding to the mass of the C11 diacid was also found in large concentrations”, the pH optimum ([2]; UV absorbance at 340 nm, 28° C., pH range 7.5-10) is reported as ~10 and the smallest substrate accepted ([2]; coupled dehydrogenase assay) is reported as “C3 (β-alanine)”. The “activity with ω-amino acids including long chain C11 and C12” value ([2]; coupled dehydrogenase assay, 340 nm, 28° C., pH 7.5-10) was “shown the desired activity with ω-amino acids, notably including long chain amino acids C11 and C12”.

B2: GabT: Gamma-aminobutyrate Transaminase; E.C. 2.6.1.19, from E. coli strain BL21-DE3, N-terminal His6-tag (protein, listed as Escherichia coli)
chain: MNSNKELMQRRSQAIPRGVGQIHPIFADRAENCRVWDVEGREYLDFAGGIAVLNTGHLHPKVVAAVEAQLKKLSHTCFQVLAYEPYLELCEIMNQKVPGDFAKKTLLVTTGSEAVENAVKIARAATKRSGTIAFSGAYHGRTHYTLALTGKVNPYSAGMGLMPGHVYRALYPCPLHGISEDDAIASIHRIFKNDAAPEDIAAIVIEPVQGEGGFYASSPAFMQRLRALCDEHGIMLIADEVQSGAGRTGTLFAMEQMGVAPDLTTFAKSIAGGFPLAGVTGRAEVMDAVAPGGLGGTYAGNPIACVAALEVLKVFEQENLLQKANDLGQKLKDGLLAIAEKHPEIGDVRGLGAMIAIELFEDGDHNKPDAKLTAEIVARARDKGLILLSCGPYYNVLRILVPLTIEDAQIRQGLEIISQCFDEAKQ
modifications: N-terminal His6-tag
notes: Gamma-aminobutyrate Transaminase; E.C; 2.6.1.19, from E. coli strain BL21-DE3, N-terminal His6-tag
For B2, the “substrate scope of GabT” value [3] was “C4-C8 omega-amino acids”.
